Values quoted from earlier work as cited in article PMC9028781.

Key:
[1] = target: YopB (nanodisc-embedded) (Yersinia pestis) (UniProt Q06114)
[2] = target: Substance P (Homo sapiens) (UniProt P20366)
Chain of Substance P (Homo sapiens) (P20366 whole entry, looked up): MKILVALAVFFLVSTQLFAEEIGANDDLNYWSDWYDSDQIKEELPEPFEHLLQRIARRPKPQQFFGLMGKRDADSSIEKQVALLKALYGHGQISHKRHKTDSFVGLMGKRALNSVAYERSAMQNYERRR

Chain of LcrV-EGFP (P0C7U7 whole entry): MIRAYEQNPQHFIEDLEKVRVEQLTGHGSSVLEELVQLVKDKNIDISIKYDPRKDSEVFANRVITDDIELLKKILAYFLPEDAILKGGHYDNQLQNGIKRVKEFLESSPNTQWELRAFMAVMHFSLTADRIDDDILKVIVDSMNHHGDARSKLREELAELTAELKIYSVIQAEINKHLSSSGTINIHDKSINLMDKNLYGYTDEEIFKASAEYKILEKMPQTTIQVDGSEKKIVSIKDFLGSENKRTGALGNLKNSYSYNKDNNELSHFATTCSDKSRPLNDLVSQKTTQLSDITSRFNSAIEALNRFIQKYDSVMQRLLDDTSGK
Chain of YopB (nanodisc-embedded) (Yersinia pestis) (Q06114 whole entry): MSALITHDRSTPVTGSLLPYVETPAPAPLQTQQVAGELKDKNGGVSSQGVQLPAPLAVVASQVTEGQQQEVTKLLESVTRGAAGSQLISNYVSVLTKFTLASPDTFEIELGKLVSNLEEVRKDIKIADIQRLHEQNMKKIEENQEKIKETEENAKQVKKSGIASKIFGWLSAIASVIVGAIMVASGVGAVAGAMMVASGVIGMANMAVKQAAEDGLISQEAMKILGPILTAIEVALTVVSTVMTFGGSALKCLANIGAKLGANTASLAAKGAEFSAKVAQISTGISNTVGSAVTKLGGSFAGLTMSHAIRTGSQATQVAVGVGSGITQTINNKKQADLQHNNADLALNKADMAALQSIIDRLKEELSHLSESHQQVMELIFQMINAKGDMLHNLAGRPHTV
Chain of Neurokinin-1 receptor (NK1R, nanodisc-embedded) (P25103 whole entry): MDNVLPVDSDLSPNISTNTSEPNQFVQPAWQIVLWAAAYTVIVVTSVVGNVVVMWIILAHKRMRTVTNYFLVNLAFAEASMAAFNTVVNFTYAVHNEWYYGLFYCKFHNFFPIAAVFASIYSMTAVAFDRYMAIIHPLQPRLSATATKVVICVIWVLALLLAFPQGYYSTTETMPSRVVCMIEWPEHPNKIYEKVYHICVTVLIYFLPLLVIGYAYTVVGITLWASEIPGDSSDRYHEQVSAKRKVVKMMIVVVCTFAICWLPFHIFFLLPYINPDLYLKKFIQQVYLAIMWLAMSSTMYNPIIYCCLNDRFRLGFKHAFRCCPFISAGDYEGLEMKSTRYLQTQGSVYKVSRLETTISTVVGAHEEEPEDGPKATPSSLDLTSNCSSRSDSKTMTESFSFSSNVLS

| Substance | Kd [1] | Kd [2] |
| --- | --- | --- |
| LcrV-EGFP (from UniProt P0C7U7) | 20 nM | – |
| Neurokinin-1 receptor (NK1R, nanodisc-embedded) (from UniProt P25103) | – | 83 nM |
